Measured values published in patent US8088892B2, “Inhibitors of proteins from the Rho-GEF family” (Centre National de la Recherche Scientifique (C.N.R.S.), priority 2002, dated 2012).
Entries after “also recorded” stand apart in the source; their conditions may differ.

Legend:
Full length Trio (RhoA) = biological target: T1, Full length Trio (RhoA) (Homo sapiens, UniProt O75962); assay: Yeast Exchange Assay (YEA), full length Trio on RhoA; assay type: cell-based; parameters: key: “+ +” represents a slight activation of the reporter gene; “+ + + +” represents a strong activation of the reporter gene; “−” represents no activation of the reporter gene; conditions: +TRIPα (−TRIPα: −)
T1 construct: Full length Trio was introduced into the YEA; expressed in transfected cells; host or cells: yeast strain TAT7
From the text: The wild type GTPase is fused to the LexA DNA binding domain (Matchmaker GAL4 two-hybrid, Clontech Laboratories, Inc., USA) and the effector to the […] (Matchmaker GAL4 two-hybrid, Clontech, Inc., USA). Under these conditions, no binding occurs in the TAT7 strain (De Toledo et al., 2000). Upon addition of a third plasmid expressing the GEF, the GTPase gets activated and binds to its effector, thus leading to the transactivation of the reporter gene LacZ.
Full length Trio was introduced into the YEA and tested for its ability to activate RhoA and RhoG respectively, in the presence or absence of TRIPα. The table below summarizes the effect of TRIPα on Trio as schematized in this Figure.
In order to better characterise the effect of TRIAPα on the Trio full length RhoGEF activity, the yeast exchange assay (YEA) was used, which is a quick and quantitative test derived from the classical two-hybrid system allowing to measure Rho-GEF activity and specificity (De Toledo et al., 2000). This functional assay is based on the fact that the GTPase binds to its effector only if it is activated by a RhoGEF. Briefly, yeasts are transformed with the GTPase fused to the LexA binding domain (LexA), and its effector to the GAL-4 Activating Domain (GAD), and with the adequate Rho-GEF partner in the yeast strain TAT7 (FIG. 7). […]

TrioGEFD1 (DH1PH1) = biological target: T2, TrioGEFD1 (DH1PH1) (Homo sapiens, UniProt O75962); assay: Binding specificity of aptamers in yeast; parameters: key to Binding in yeast: +++^1 and +^1 represent respectively a full and a partial (see FIG. 1) binding capacity; +++^1 and +^1 represent respectively a full and a partial (see FIG. 1) binding capacity; −−^1 represents a lack of binding
T2 construct: TrioGEFD1 (a.a. 1232-1629); expressed in transfected cells; host or cells: yeast
From the text: Trx represents the thioredoxin protein with no inserted peptide.
In order to identify specific inhibitors of TrioGEFD2, a recently developed strategy was used, this strategy being derived from the yeast two hybrid system, where the cDNA library of preys has been replaced by a combinatorial library of short peptides (20 amino acids) in fusion with the bacterial protein thioredoxin A (Colas et al., 1996). This strategy has been successfully used to isolate specific inhibitors of the cyclin-dependent kinases (Cdks), the cell cycle transcription factor E2F, or the viral HPV16 E6 oncoprotein and HBEV core protein (Colas et al., 1996; Butz et al., 2001; Fabrizzio et al., 1999; Geyer et al., 2000). The TrioGEFD2 bait was constructed as follows: plasmid pMTHATrio1848-2298 (Bellanger et al., 1998) was digested with EcoRI/XhoI and the insert cloned in pEG202EcoRI/XhoI to generate the bait pEG202TroGEFD2. Yeast strain EGY048 (Colas et al., 1996) was transformed with pEG202TrioGEFD2 and subsequently with the library of Thioredoxin constrained aptamers according to standard procedures (Ito et al., 1983). After transformation, cells were allowed to recover for 4 hours in galactose containing medium before plating on selective galactose medium. Of the 2×10^6 screened colonies, those growing in the selective medium were recovered and retested for interaction. […] Binding specificity was investigated by screening for interaction with the following baits: TrioDH2 (a.a. 1848-2096), TrioPH2 (a.a. 2107-2223), TrioGEFD1 (a.a. 1232-1629), Dbl (a.a. 498-826), Vav (ala. 172-598) (Zhang et al, 1994), GEFD2 domain of Kalirin (a.a. 1640-1980)(Penzes et al., 2001), p115RhoGEF (a.a. 391-870)(Wells et al, 2002) and PDZRhoGEF (a.a. 964-1362) (Fukuhara et al., 1999). None of these aptamers interacted with other RhoGEF members such as Dbl, Vav, and the RhoA-specific GEFs p115RhoGEF and PDZRhoGEF.

**Q.** “AREGADGAICGYNLATLVMLGPSERVFCPLCEPCSSDIYELM [TRIPα, 42-amino acid peptide corresponding to the variable region of TRIAPα]” was tested. Which “activation of the reporter gene by full length Trio, RhoA” value (Full length Trio (RhoA)) did it give?
**A.** The value was “−”.

B1: TRIAPα: aptamer of 154 amino acids: variable region of 42 amino acids inserted into the thioredoxin protein; tested as GST fusion (protein)
chain: MSDKIIHLTDDSFDTDVLKADGAILVDFWAEWCGPAREGADGAICGYNLATLVMLGPSERVFCPLCEPCSSDIYELMGPCKMIAPILDEIADEYQGKLTVAKLNIDQNPGTAPKYGIRGIPTLLLFKNGEVASATKVGALSKGQLKEFLDANLA
**Q.** B1 was tested. Which Binding in yeast (TrioGEFD1 (DH1PH1); RhoGEF TrioDH1PH1) did it give?
**A.** Its Binding in yeast is “+^1”.

**Q.** And the “Binding to TrioGEFD1 (DH1PH1) in yeast” value (TrioGEFD1 (DH1PH1); growth on selective medium)?
**A.** Its value is “weakly interacts; also recorded: interacted weakly; also recorded: bound TrioGEFD1 in yeast”.
